In IntAct's records for PubMed 22184064:

biological target: CCNY, Q8ND76-1
Sequence (Q8ND76 whole entry): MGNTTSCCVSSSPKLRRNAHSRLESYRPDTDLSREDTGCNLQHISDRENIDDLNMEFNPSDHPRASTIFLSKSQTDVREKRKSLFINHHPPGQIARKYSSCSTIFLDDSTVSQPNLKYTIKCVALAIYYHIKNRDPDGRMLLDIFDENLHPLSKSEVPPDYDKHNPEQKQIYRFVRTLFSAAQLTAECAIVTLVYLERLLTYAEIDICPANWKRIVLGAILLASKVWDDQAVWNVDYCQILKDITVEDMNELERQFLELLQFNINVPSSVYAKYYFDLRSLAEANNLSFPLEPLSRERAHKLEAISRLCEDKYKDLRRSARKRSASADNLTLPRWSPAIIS

Sequence of Cyclin-dependent kinase 16 (Homo sapiens), Q00536 S153A (Q00536 whole entry S153A): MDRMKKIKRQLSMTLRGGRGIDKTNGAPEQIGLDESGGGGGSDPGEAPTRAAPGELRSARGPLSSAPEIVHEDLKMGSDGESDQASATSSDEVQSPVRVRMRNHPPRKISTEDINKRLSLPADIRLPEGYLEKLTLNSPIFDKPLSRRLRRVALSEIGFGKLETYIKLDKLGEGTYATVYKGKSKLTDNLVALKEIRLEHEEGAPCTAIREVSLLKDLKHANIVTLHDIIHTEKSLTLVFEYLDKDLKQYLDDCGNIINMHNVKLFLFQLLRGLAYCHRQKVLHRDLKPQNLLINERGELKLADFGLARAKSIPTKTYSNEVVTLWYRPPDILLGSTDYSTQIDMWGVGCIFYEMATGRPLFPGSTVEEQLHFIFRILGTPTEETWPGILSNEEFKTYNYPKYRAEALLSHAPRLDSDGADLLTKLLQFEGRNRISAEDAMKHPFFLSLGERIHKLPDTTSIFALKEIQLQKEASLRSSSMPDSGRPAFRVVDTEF
Sequence of Cyclin-dependent kinase 16 (Homo sapiens), Q00536 K216E (Q00536 whole entry K216E): as the sequence (Q00536 whole entry S153A) above, with A153S, K216E counted along it
Sequence of Cyclin-dependent kinase 16 (Homo sapiens), Q00536 S119A (Q00536 whole entry S119A): as the sequence (Q00536 whole entry S153A) above, with S119A, A153S counted along it
Sequence of Cyclin-dependent kinase 16 (Homo sapiens), Q00536 S153D (Q00536 whole entry S153D): as the sequence (Q00536 whole entry S153A) above, with A153D counted along it
Sequence of Cyclin-dependent kinase 16 (Homo sapiens), Q00536 I209T (Q00536 whole entry I209T): as the sequence (Q00536 whole entry S153A) above, with A153S, I209T counted along it
Sequence of Cyclin-dependent kinase 16 (Homo sapiens), Q00536 G158D (Q00536 whole entry G158D): as the sequence (Q00536 whole entry S153A) above, with A153S, G158D counted along it

effect of a mutation on the interaction | Substance
disrupting interaction strength | Cyclin-dependent kinase 16 (Homo sapiens), Q00536 G158D
disrupting interaction strength | Cyclin-dependent kinase 16 (Homo sapiens), Q00536 S153D
increasing interaction strength | Cyclin-dependent kinase 16 (Homo sapiens), Q00536 S153A
disrupting interaction strength | Cyclin-dependent kinase 16 (Homo sapiens), Q00536 S119A
disrupting interaction strength | Cyclin-dependent kinase 16 (Homo sapiens), Q00536 K216E
disrupting interaction strength | Cyclin-dependent kinase 16 (Homo sapiens), Q00536 I209T
